System: histone octamer WT
Assay: ensemble FRET (microplate), salt-induced disassembly
Settings: Reconstitution by dialysis from 2 M to 5 mM NaCl in 10 mM Tris-HCl, 0.1 mM EDTA; FRET over NaCl titration (FRET buffer and temperature not in the material) …

In the case of Widom 601 170 bp, the K half was 800 mM NaCl.
